From publication PMC6614557 (Nature medicine, 2018)

Tests used:
[1] = molecular target: T1, ONECUT2 (OC2), OC2-HOX domain (Homo sapiens, UniProt O95948); experiment: SPR, His-tagged OC2-HOX immobilized, […] model fit; type: binding
T1 sequence (O95948 330-485): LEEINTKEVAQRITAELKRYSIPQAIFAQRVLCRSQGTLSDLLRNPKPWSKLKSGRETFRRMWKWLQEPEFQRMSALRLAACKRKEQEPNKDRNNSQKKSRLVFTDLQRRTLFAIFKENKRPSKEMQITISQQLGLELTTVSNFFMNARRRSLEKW

[2] = molecular target: the molecule itself; experiment: SEC
[3] = molecular target: T2, OC2-HOX (ONECUT2 homeodomain construct) (Homo sapiens, UniProt O95948 330-485); experiment: SPR
T2 sequence: T1 sequence (O95948 330-485)

Molecule: NC(CO)C(=O)N/N=C/c1ccc(O)c(O)c1O (racemic) [CSRM617, 1-{(E)-[(2,3,4-Trihydroxyphenyl)methylidene]hydrazino}−2-amino-3-hydroxy-1-propanone]
- Kd [1]: 7.43 µM

B1: Recombinant OC2-HOX domain (L330-W485) of OC2 (domain or fragment, human, UniProt O95948 330-485, looked up)
chain: T1 sequence (O95948 330-485)
- stoichiometry N [2]: 2

B2: PEG10 promoter OC2 motif probe (dsDNA)
DNA 1: TAGATCGATTTGCA
DNA 2: TGCAAATCGATCTA
- Kd [3]: ~0.001 µM
